The values that follow come from publication doi:10.1101/2023.04.09.536162v1.

Substrate in the data set: C[C@@H](O)[C@H](N)C(=O)O
Description: purified protein. Particulars: natural substrate.

B1: NmLTA (Neptunomonas marina) (protein)
chain: MASNDSCIEDTVSFTSDNIAAAAPEIVQAMAQACQGNAQPYGGDALTQNVEAQLKAIFECDLQLFLVPTGSAANAISLAALTPPWGAILCHQESHINNDECGAPEFFTAGAKLIAVAGTHGKLDPQALTQAARNKRGDVHSVEPTTVSITQATEVGSIYALDELNEIGQICRNEGLKLHMDGARFANALSALGCTPAEMTWKAGVDVLSFGATKNGSLCAEAIILFDKSYAQEIAFRRKRGGHLLSKMRFLSAQMHAYLADDLWLTNARHANLMAARLAAGLSALSRVSLIAPTESNIIFCRMPTKMIAALQQQGFQFYHDRWGDGIVRLVTSFATTQAQVDTFIAAAAQLNQNTD
In general, Km refers to the concentration of substrate that gives half-maximal velocity. As a reminder, the kcat is the number of substrate molecules converted per active site and unit of time at saturation. As for B1, the Michaelis constant (Km) was determined as 12.3 mM and the kcat was determined as 805.7 s⁻¹.
